# Assay results taken from patent publication US20240182536A1 (MURAL ONCOLOGY, published 2024).
# Numbering of substitutions follows the chain as printed. Names may count otherwise.
# T1: human IL-18 binding protein (IL-18BP) (human, UniProt O95998 31-194)
# T1 construct: also called hu IL-18BP; hIL18BP
# T1 sequence (looked up): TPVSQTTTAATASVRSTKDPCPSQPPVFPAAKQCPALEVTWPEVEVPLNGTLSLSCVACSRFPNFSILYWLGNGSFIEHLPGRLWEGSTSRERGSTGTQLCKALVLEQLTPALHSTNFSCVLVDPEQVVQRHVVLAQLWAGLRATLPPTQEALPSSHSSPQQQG
# T2: human IL-18R alpha/beta pair (IL-18Rab) (human, UniProt Q13478 19-329; O95256 20-356)
# T2 construct: also called hu IL-18Rab
# T2 sequence (looked up) 1: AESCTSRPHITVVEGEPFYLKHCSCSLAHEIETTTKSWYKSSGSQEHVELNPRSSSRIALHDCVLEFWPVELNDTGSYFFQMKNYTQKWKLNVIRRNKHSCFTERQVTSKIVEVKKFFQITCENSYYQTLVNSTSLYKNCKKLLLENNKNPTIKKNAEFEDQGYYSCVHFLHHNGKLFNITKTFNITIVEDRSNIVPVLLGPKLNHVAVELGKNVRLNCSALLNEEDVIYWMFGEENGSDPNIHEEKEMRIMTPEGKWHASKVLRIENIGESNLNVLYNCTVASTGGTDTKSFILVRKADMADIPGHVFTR
# T2 sequence (looked up) 2: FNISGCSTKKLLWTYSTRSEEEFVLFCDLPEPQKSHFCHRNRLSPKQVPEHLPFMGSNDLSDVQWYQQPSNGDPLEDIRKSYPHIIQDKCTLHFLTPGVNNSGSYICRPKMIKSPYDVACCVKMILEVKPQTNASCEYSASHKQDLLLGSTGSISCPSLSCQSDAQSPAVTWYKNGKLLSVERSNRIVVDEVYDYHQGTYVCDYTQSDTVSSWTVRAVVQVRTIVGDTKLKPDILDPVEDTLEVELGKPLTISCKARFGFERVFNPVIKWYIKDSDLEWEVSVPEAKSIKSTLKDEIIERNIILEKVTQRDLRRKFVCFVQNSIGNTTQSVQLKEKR
# T3: human IL-18 receptor alpha (IL-18Rα) (human, UniProt Q13478 19-329, limits assumed)
# T3 construct: also called hu IL-18Ra; IL-18R alpha
# T3 sequence (looked up): T2 sequence (looked up) 1
# T4: IL-18 receptors on HEK-Blue IL-18 reporter cells (InvivoGen) (UniProt Q13478 19-541; O95256 20-599)
# T4 sequence (looked up) 1: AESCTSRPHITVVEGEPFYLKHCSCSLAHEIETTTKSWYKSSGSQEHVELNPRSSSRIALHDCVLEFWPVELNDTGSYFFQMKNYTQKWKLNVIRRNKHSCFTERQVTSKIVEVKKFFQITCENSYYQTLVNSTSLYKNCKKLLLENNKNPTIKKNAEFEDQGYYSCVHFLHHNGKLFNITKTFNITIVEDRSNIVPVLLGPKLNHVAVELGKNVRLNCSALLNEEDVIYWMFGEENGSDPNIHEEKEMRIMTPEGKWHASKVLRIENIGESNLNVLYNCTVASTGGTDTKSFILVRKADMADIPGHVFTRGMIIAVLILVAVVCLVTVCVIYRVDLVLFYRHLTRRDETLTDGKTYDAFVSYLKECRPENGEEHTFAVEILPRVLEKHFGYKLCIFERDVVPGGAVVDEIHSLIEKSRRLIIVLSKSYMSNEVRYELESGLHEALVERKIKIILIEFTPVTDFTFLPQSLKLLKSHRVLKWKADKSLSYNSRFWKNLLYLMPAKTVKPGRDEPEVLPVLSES
# T4 sequence (looked up) 2: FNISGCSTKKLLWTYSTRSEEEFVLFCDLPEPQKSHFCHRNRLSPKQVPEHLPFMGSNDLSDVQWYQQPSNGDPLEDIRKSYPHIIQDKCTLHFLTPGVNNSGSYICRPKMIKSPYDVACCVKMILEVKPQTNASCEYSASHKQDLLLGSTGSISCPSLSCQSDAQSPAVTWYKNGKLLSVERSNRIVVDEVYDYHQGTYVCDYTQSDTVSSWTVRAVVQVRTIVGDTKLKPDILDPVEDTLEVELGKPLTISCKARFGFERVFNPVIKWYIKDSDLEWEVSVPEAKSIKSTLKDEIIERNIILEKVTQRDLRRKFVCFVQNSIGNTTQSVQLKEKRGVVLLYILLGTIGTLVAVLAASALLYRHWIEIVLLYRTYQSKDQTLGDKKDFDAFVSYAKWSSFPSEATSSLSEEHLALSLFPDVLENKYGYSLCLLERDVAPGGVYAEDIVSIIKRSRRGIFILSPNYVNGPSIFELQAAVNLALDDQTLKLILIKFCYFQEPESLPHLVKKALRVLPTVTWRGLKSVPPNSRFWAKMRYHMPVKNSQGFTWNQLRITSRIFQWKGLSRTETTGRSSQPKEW
# T5: IL-18 receptor (IL-18Rα and IL-18Rβ) (UniProt Q13478 19-541; O95256 20-599, limits assumed)
# T5 sequence (looked up) 1: T4 sequence (looked up) 1
# T5 sequence (looked up) 2: T4 sequence (looked up) 2
# T6: mouse IL-18 binding protein (mouse, UniProt Q9Z0M9 29-193)
# T6 sequence (looked up): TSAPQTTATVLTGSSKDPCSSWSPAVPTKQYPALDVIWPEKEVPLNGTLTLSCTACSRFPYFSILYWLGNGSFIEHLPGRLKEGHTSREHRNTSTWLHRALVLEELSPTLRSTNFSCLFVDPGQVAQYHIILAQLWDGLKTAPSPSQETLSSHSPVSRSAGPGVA
# T7: mouse IL-18 receptors on PathHunter U2OS mIL18-NF-kb reporter cells (mouse, UniProt Q61098 20-537; Q9Z2B1 20-614)
# T7 sequence (looked up) 1: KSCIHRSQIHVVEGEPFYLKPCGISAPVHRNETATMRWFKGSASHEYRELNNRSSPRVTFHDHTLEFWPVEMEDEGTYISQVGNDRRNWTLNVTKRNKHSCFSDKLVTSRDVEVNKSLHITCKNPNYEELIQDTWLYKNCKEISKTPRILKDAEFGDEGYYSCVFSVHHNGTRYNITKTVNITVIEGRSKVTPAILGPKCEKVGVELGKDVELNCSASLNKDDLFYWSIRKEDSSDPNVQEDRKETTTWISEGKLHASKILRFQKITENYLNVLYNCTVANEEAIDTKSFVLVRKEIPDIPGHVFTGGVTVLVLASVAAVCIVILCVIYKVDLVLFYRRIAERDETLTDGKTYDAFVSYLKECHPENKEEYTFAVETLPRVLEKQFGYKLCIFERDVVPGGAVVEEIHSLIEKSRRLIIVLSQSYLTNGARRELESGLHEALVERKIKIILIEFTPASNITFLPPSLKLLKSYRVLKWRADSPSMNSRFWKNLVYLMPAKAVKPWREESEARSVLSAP
# T7 sequence (looked up) 2: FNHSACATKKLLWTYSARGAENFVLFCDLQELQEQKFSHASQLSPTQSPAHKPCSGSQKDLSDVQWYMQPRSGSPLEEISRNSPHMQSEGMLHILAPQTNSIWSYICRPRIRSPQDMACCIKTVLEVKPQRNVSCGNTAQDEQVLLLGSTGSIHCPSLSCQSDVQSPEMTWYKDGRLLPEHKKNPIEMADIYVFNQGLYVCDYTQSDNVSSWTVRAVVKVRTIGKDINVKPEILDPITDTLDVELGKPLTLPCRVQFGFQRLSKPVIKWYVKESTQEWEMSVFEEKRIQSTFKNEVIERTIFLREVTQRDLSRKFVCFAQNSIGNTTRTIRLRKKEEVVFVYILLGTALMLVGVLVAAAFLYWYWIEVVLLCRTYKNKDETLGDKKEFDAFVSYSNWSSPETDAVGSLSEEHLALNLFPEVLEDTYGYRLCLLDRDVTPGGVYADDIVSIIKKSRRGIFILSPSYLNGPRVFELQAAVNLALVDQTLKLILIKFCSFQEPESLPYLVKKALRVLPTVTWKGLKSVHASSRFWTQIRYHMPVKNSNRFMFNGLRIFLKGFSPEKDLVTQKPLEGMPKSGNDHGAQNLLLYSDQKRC
# T8: mouse IL-18 receptor alpha (mouse, UniProt Q61098 20-326, limits assumed)
# T8 construct: also called Mouse IL18Ra; mouse IL-18R alpha
# T8 sequence (looked up): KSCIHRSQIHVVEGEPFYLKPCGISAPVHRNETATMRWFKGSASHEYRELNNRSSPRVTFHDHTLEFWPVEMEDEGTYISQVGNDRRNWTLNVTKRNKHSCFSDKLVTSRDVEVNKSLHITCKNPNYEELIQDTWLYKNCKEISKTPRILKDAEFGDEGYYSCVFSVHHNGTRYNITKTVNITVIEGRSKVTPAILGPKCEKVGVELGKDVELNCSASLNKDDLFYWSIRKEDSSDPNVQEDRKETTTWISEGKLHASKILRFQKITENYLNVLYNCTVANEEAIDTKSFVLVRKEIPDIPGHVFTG
# B1: IL-18 variant G3T, M60K (ligand)
# chain: YFTKLESKLSVIRNLNDQVLFIDQGNRPLFEDMTDSDMRDNAPRTIFIISMYKDSQPRGKAVTISVKSEKISTLSSENKIISFKEMNPPDNIKDTKSDIIFFQRSVPGHDNKMQFESSSYEGYFLASEKERDLFKLILKKEDELGDRSIMFTVQNED
# B2: mouse IL-18 G3T, H6K, K52A on monoFc scaffold (Fc fusion, not shown: small tags and cut ends)
# chain: NFTRLKSTTAVIRNINDQVLFVDKRQPVFEDMTDIDQSASEPQTRLIIYMYADSEVRGLAVTLSVKDSKMSTLSSKNKIISFEEMDPPENIDDIQSDLIFFQKRVPGHNKMEFESSLYEGHFLACQKEDDAFKLILKKKDENGDKSVMFTLTNLHQSNGGPSVFLFPPKPKDTLMISRTPEVTCVVVDVSHEDPEVKFNWYVDGVEVHNAKTKPREEQYNSTYRVVSVLTVLHQDWLNGKEYKCKVSNKALPAPIEKTISKAKGQPREPQVYTLPPSREEMTKNQVNLTCLVKGFYPSDIAVEWESNGQPENNYKTTPPVLDSDGSFFLNSTLTVDKSRWQQGNVFSCSVMHEALHNHYTQKSLSLS
# B3: mouse IL-18 G3V, H6K, K52A on monoFc scaffold (Fc fusion, not shown: small tags and cut ends)
# chain: B2 chain with T3V
# B4: mouse IL-18 G3V, K52A on monoFc scaffold (Fc fusion, not shown: small tags and cut ends)
# chain: B2 chain with T3V, K6H
# B5: mouse IL-18 G3T, K52A on monoFc scaffold (Fc fusion, not shown: small tags and cut ends)
# chain: B2 chain with K6H
# Columns and labels:
# [1] = target: T1, human IL-18 binding protein (IL-18BP); assay: Octet BLI
# Procedure: (§1) Octet 96red instrument was used to determine affinities of IL18 proteins to BP or receptors. 5-10 ug/ml analyte proteins were used for loading on Sartorius tips (AHC or SA). […] 120-180 s loading, 200 s association and 800 s dissociation were used for kinetics. 3-7 data points were used to calculate affinities.
# [2] = target: T2, human IL-18R alpha/beta pair (IL-18Rab); assay: Octet BLI
# Procedure: as §1
# [3] = target: T3, human IL-18 receptor alpha (IL-18Rα); assay: Octet BLI
# Procedure: as §1
# [4] = target: T1, human IL-18 binding protein (IL-18BP); assay: cell-based or functional assay
# [5] = target: T4, IL-18 receptors on HEK-Blue IL-18 …; assay: cell-based or functional assay
# [6] = target: T1, human IL-18 binding protein (IL-18BP); assay: cell-based or functional assay; remark: listed apart in the source
# [7] = target: T4, IL-18 receptors on HEK-Blue IL-18 …; assay: cell-based or functional assay; remark: listed apart in the source
# [8] = target: T1, human IL-18 binding protein (IL-18BP); assay: cell-based or functional assay; remark: listed apart in the source
# [9] = target: T5, IL-18 receptor (IL-18Rα and IL-18Rβ); assay: cell-based or functional assay
# [10] = target: T6, mouse IL-18 binding protein; assay: cell-based or functional assay
# [11] = target: T7, mouse IL-18 receptors on PathHunter …; assay: cell-based or functional assay
# [12] = target: T6, mouse IL-18 binding protein; assay: Octet BLI, monoFc scaffold
# Procedure: as §1
# (§2) Several mouse variants were next tested for binding affinity to mouse IL-18R alpha and mouse IL-18BP.
# [13] = target: T8, mouse IL-18 receptor alpha; assay: Octet BLI, monoFc scaffold
# Procedure: as §1, §2
binder,measurement,setting,value
B1,Kd,[1],779 nM
same,Kd,[2],0.02 nM
same,Kd,[3],555 nM
same,"HEK-Blue Activity Assay Ec50 (pM), +300 nM hu IL-18BP",[4],2.4 pM
same,"HEK-Blue Activity Assay Ec50 (pM), -hu IL-18BP",[5],0.76 pM
same,"Fold Change (BP/NO BP), 50 nM BP",[6],0.99 fold
same,"Fold Change (BP/NO BP), 300 nM BP",[6],3.14 fold
same,"HEK-Blue EC50 pM, +50 nM BP",[6],0.7 pM
same,HEK-blue EC50 (pM) + 300 nM BP,[6],2.4 pM
same,"HEK-Blue EC50 pM, NO BP (50 nM BP run)",[7],0.71 pM
same,"HEK-Blue EC50 pM, NO BP (300 nM BP run)",[7],0.76 pM
same,"EC50 pM, IFN gamma expression in PBMCs, + 300 nM BP",[8],117 pM
same,"EC50 pM, IFN gamma expression in PBMCs, no BP",[9],214 pM
B2,"mouse IL-18 reporter assay EC50, +Mouse IL-18BP 50 nM",[10],0.00169 nM
same,"mouse IL-18 reporter assay EC50, without mouse IL-18BP",[11],0.00176 nM
same,Kd,[12],78 nM
same,Kd,[13],42.7 nM
B3,"mouse IL-18 reporter assay EC50, +Mouse IL-18BP 50 nM",[10],0.00486 nM
same,"mouse IL-18 reporter assay EC50, without mouse IL-18BP",[11],0.0009 nM
same,Kd,[12],14 nM
same,Kd,[13],4.85 nM
B4,"mouse IL-18 reporter assay EC50, +Mouse IL-18BP 50 nM",[10],0.0364 nM
same,"mouse IL-18 reporter assay EC50, without mouse IL-18BP",[11],0.0007 nM
same,Kd,[12],2 nM
same,Kd,[13],8.85 nM
B5,"mouse IL-18 reporter assay EC50, +Mouse IL-18BP 50 nM",[10],0.0208 nM
same,"mouse IL-18 reporter assay EC50, without mouse IL-18BP",[11],0.00124 nM
same,Kd,[12],11 nM
same,Kd,[13],97 nM
